# Laboratory results published in article PMC4132270.
# How the values were obtained:
# [1] = biological target: Taq 1C2 (Thermus aquaticus) (UniProt P19821); test: EMSA; conditions: 3' end blocked with dideoxy TMP (3' ddT; unclear whether the printed 3' T is the ddT or it is added); 0.25 nM hairpin, 0.5-1000 nM enzyme, 1x Taq buffer (50 mM KCl for wild type, 95 mM KCl for mutants; full composition and pH not stated for this assay), 37 C …
# [2] = biological target: Taq 42 G59W;L245M;L375V;E507K;K508R;E734G;F749I (Thermus aquaticus) (UniProt P19821); test: EMSA; conditions: 3' end blocked with dideoxy TMP (3' ddT; unclear whether the printed 3' T is the ddT or it is added); 0.25 nM hairpin, 0.5-1000 nM enzyme, 1x Taq buffer (50 mM KCl for wild type, 95 mM KCl for mutants; full composition and pH not stated for this assay), 37 C …
sequence,measurement,setting,value
CTCCAGACACGACGCAGTTGCCCGATGGTCGACGTTCGCGAAAGCGAACGTCGACCATCGGGCAACT [hairpin primer-template],Kd,[1],1.9 nM
same,Kd,[2],2.75 nM
